Article doi:10.1101/2023.11.26.568713v1

Experiments:
[1] = substrate: O=CC(=O)O; test: purified protein, by the assay type; conditions: pH 7.6; 30.0 °C
[2] = substrate: O=CC(=O)O; test: purified protein, by the assay type; conditions: pH 7.6; 30.0 °C; remark: listed apart in the source

Row | Protein | Km [1] [µM] | Km [2] [µM]
1 | BhcA (Paracoccus denitrificans PD1222) (protein) MTSQNPIFIPGPTNIPEEMRKAVDMPTIDHRSPVFGRMLHPALEGVKKVLKTTQAQVFLFPSTGTGGWETAITNTLSPGDKVLAARNGMFSHRWIDMCQRHGLDVTFVETPWGEGVPADRFEEILTADKGHEIRVVLATHNETATGVKSDIAAVRRALDAAKHPALLFVDGVSSIGSMDFRMDEWGVDIAVTGSQKGFMLPPGLAIVGFSPKAMEAVETARLPRTFFDIRDMATGYARNGYPYTPPVGLINGLNASCERILAEGLENVFARHHRIASGVRAAVDAWGLKLCAVRPELYSDSVSAIRVPEGFDANLIVSHALETYDMAFGTGLGQVAGKVFRIGHLGSLTDAMALSGIATAEMVMADLGLPIQLGSGVAAAQEHYRQTTAAAQKKAA | 140 ± 20 | 190 ± 20
2 | GGT1 (Arabidopsis thaliana) (protein) MALKALDYDTLNENVKKCQYAVRGELYLRASELQKEGKKIIFTNVGNPHALGQKPLTFPRQVVALCQAPFLLDDPNVGMLFPADAIARAKHYLSLTSGGLGAYSDSRGLPGVRKEVAEFIQRRDGYPSDPELIFLTDGASKGVMQILNCVIRGNGDGILVPVPQYPLYSATISLLGGTLVPYYLDESENWGLDVANLRQSVAQARSQGITVRAMVIINPGNPTGQCLSEANIREILKFCYNEKLVLLGDEVYQQNIYQDERPFISSKKVLMEMGSPFSKEVQLVSFHTVSKGYWGECGQRGGYFEMTNLPPRVVEEIYKVASIALSPNVSAQIFMGLMVNPPKPGDISYDQFARESKGILESLRRRARLMTDGFNSCKNVVCNFTEGAMYSFPQIRLPTGALQAAKQAGKVPDVFYCLKLLEATGISTVPGSGFGQKEGVFHLRTTILPAEDEMPEIMDSFKKFNDEFMTQYDNNFGYSKM | 330 ± 30 | –
